# Article PMC7308080, “The His-Gly motif of acid-sensing ion channels resides in a reentrant ‘loop’ implicated in gating and ion selectivity” (eLife, 2020)
# Molecular target: the molecule itself
# Test: cryo-EM structure; single-particle cryo-EM of purified cASIC1-SMA at ~1 mg/ml, pH adjusted to 7.0 with MES pH 6.0, TBS with 1 mM DTT; low pH desensitized state; C3 symmetry in the final refinement
protein,measurement,value
"full-length chicken acid-sensing ion channel 1 (cASIC1) solubilized in styrene maleic acid copolymer (natural protein, Gallus gallus (chicken), UniProt Q1XA76 1-527, looked up, the final models contain residues 17-462; Homotrimer in SMA copolymer with endogenous lipids; Expression is 'as previously described (Yoder et al., 2018a)'; also called cASIC1-SMA; SMA-cASIC1a) MMDLKVDEEEVDSGQPVSIQAFASSSTLHGISHIFSYERLSLKRVVWALCFMGSLALLALVCTNRIQYYFLYPHVTKLDEVAATRLTFPAVTFCNLNEFRFSRVTKNDLYHAGELLALLNNRYEIPDTQTADEKQLEILQDKANFRNFKPKPFNMLEFYDRAGHDIREMLLSCFFRGEQCSPEDFKVVFTRYGKCYTFNAGQDGKPRLITMKGGTGNGLEIMLDIQQDEYLPVWGETDETSFEAGIKVQIHSQDEPPLIDQLGFGVAPGFQTFVSCQEQRLIYLPPPWGDCKATTGDSEFYDTYSITACRIDCETRYLVENCNCRMVHMPGDAPYCTPEQYKECADPALDFLVEKDNEYCVCEMPCNVTRYGKELSMVKIPSKASAKYLAKKYNKSEQYIGENILVLDIFFEALNYETIEQKKAYEVAGLLGDIGGQMGLFIGASILTVLELFDYAYEVIKHRLCRRGKCRKNHKRNNTDKGVALSMDDVKRHNPCESLRGHPAGMTYAANILPHHPARGTFEDFTC",stoichiometry N,3
